Several values for one entry are separate records, joined by “and”; a condition that tells them apart may be missing. Equal values may be shown once.

The data set deals with the molecule itself. In words: AUC.

B1: homoserine acetyl transferase (HSAT, MetX, Rv3341) from M. tuberculosis, recombinant (His)6-MetX (enzyme)
chain: MTISDVPTQTLPAEGEIGLIDVGSLQLESGAVIDDVCIAVQRWGKLSPARDNVVVVLHALTGDSHITGPAGPGHPTPGWWDGVAGPGAPIDTTRWCAVATNVLGGCRGSTGPSSLARDGKPWGSRFPLISIRDQVQADVAALAALGITEVAAVVGGSMGGARALEWVVGYPDRVRAGLLLAVGARATADQIGTQTTQIAAIKADPDWQSGDYHETGRAPDAGLRLARRFAHLTYRGEIELDTRFANHNQGNEDPTAGGRYAVQSYLEHQGDKLLSRFDAGSYVILTEALNSHDVGRGRGGVSAALRACPVPVVVGGITSDRLYPLRLQQELADLLPGCAGLRVVESVYGHDGFLVETEAVGELIRQTLGLADREGACRR
B1: the “stoichiometry N” value was 2 and 4.

As usually defined, the stoichiometry N is the number of molecules, sites or subunits per partner or assembly.

These data come from PMC9376091 (Scientific Reports, 2022).
